# According to patent US12234463B2, “Engineered microorganisms with G3P → 3PG enzyme and/or fructose-1,6-bisphosphatase including those having synthetic or enhanced methylotrophy” (Genomatica, Inc., priority 2018, dated 2025):
# B1: E. coli GapA (NAD-dependent glyceraldehyde-3-phosphate dehydrogenase A; P0A9B2) (Escherichia coli K-12) (protein)
# chain: MTIKVGINGFGRIGRIVFRAAQKRSDIEIVAINDLLDADYMAYMLKYDSTHGRFDGTVEVKDGHLIVNGKKIRVTAERDPANLKWDEVGVDVVAEATGLFLTDETARKHITAGAKKVVMTGPSKDNTPMFVKGANFDKYAGQDIVSNASCTTNCLAPLAKVINDNFGIIEGLMTTVHATTATQKTVDGPSHKDWRGGRGASQNIIPSSTGAAKAVGKVLPELNGKLTGMAFRVPTPNVSVVDLTVRLEKAATYEQIKAAVKAAAEGEMKGVLGYTEDDVVSTDFNGEVCTSVFDAKAGIALNDNFVKLVSWYDNETGYSNKVLDLIAHISK
# notes: NAD-dependent; kinetic assay with G3P
# B2: Bacillus methanolicus MGA3 GapN (NADP-dependent glyceraldehyde-3-phosphate dehydrogenase), cds 10663A (Bacillus methanolicus MGA3) (protein)
# chain: MQVLEKDFKFLLNGEWSFSSSNQFINIYSPSTGEVVGRVPAMTKDEIDKAVAGARQAQKKWEKLAVSERAKILHAWADELVKMIDVIAPMIMNEVGKNISTARKEVTRTAEIIRYTAEEGVRIHGEFINGGSLDADSSIKTAIVEKKPLGVILAISPFNYPINLAATKIAPALIAGNAVVFKPATQGAISGLLMIQALENAGLPKGLVNTVTGKGSEIGDYIITHPFIDMISFTGGTGTGQNIARKASMIPLVLELGGKDPAIVLEDADLELAATEIVSGAFSYSGQRCTAIKRVLVLKDVAAPLIEKIKEKVEKLTVGRPEDDADITPLIDESSADFVQGLIDDALAKGASLITGNKREKNLIYPTVLSNVTKDMKVAWEEPFGPVLPCIIVDSVEEAIEIANESEFGLQASVFTSNIEKAFTIASSLDVGSVQINGRTERGPDHFPFSAVKNSGLGSQGIRQSIISMMRDKVTVINLKK
# B3: Bacillus methanolicus PB1 GapN (NADP-dependent glyceraldehyde-3-phosphate dehydrogenase), cds 10662A (Bacillus methanolicus PB1) (protein)
# chain: MQVLEKDHKFLLNGKWCYSSSNEFINIYSPSTGEIVGRVPAMTKDEIDKAVAGACQAQKNWEKLAVSDRAKILHAWADELVKMIDVIAPMIMNEVGKNISTAKREVIRTADIIRYTAEEGVRIHGEFINGGSLDADSSKKTAIVEKKPLGVILAISPFNYPINLAATKIAPALIAGNAVVFKPATQGAISGLLMIQALENAGLPEGLVNTVTGKGSEIGDYIITHPFIDMISFTGGTGTGQNIARKASMIPLVLELGGKDPAIVLEDADLELAAAEIVSGAFSYSGQRCTAIKRVIVLKDAAAPLIEKIKEKVEKLTVGKPEDDADITPLIDESSADFVQGLIDDALAKGATLITGNKREKNLIYPTVLSNVTKDMKVAWEEPFGPVLPCIIVDSAEEAIEIANESEFGLQASVFTTNIEKAFSIASSLDVGSVQINGRTERGPDHFPFSAVKNSGLGSQGIRQSIISMMRDKVTVINLKR
# Columns and labels:
# [1] = substrate: O=C[C@H](O)COP(=O)(O)O; experiment: GapN vs. GapA kinetic comparison: catalytic constants of GapA (Table 18); assay type: biochemical, E. coli; settings: other: fixed NAD; G3P varied
# [2] = substrate: NC(=O)c1ccc[n+]([C@@H]2O[C@H](COP(=O)(O)OP(=O)(O)OC[C@H]3O[C@@H](n4cnc5c(N)ncnc54)[C@H](OP(=O)(O)O)[C@@H]3O)[C@@H](O)[C@H]2O)c1; experiment: purified protein, by the assay type; settings: other: fixed G3P; NADP varied
Protein,Km [1] [µM],kcat [1] [s⁻¹],kcat/Km [1] [M⁻¹ s⁻¹],Km [2] [µM],kcat [2] [s⁻¹],kcat/Km [2] [M⁻¹ s⁻¹]
B1,2000 ± 300,19 ± 1,9500,,,
B2,,,,270 ± 40,8.2,30000
B3,,,,320 ± 70,9.7,31000
